Reference: patent WO2001079494A1
One block for each binder: values may come before it.

Target: human TPO receptor (MPL) expressed on Ba/F3 cells (human) (UniProt P40238)
Test: cell-based or functional assay

- ED50, proliferation of BaF/Mpl cells (WST-8): 0.029 µM
B1: 12B5 antibody (IgG) (antibody, from another filing)
scFv: QVQLVQSGGGLVRPGGSLSLSCAVSGITLRTYGMHWVRQAPGKGLEWVAGISFDGRSEYYADSVQGRFTISRDSSKNTLYLQMNSLRAEDTAVYYCARGAHYGFDIWGQGTMVTVSSGGGGTGGGGSGGGGSDIQMTQSPSTLSASIGDRVTITCRASEGIYHWLAWYQQKPGKAPKLLIYKASSLASGAPSRFSGSGSGTDFTLTISSLQPDDFATYYCQQYSNYPLTFGGGTKLEIK

- ED50, proliferation of BaF/Mpl cells (WST-8): 34.7 µM
B2: 12B5 Fab (Fab, from another filing)
scFv: B1 scFv
